This note sets out measurements from patent US20040132642A1, “Methods of inhibiting metastasis or growth of a tumor cell” (Government of the U.S.A., represented by the Secretary, …, priority 2002, published 2004).

Test [1] concerns the target human CXC Chemokine Receptor-4 (CXCR4) (human) (UniProt P61073). Description: cell-based or functional assay.
For test [2], the target named is LMEC-derived CXCL12 (endogenous CXCL12 of human lung microvascular endothelial cells) (human) (UniProt P48061). Description: cell-based or functional assay.
Chain of LMEC-derived CXCL12 (endogenous CXCL12 of human lung microvascular endothelial cells) (human) (P48061 22-93 limits assumed): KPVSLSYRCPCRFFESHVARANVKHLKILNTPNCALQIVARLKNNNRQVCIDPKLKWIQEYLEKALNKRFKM

Chain of human CXC Chemokine Receptor-4 (CXCR4) (human) (P61073 whole entry): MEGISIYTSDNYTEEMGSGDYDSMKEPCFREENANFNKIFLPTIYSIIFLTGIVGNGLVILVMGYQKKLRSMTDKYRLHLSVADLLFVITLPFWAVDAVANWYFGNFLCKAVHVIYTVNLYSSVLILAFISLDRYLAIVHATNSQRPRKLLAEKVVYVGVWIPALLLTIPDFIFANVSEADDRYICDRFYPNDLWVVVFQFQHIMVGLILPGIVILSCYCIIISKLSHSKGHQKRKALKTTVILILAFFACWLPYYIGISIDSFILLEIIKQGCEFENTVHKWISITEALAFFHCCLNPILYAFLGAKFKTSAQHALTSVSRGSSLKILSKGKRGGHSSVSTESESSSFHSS
Chain of recombinant CXCL12 (SDF-1) (ligand) (P48061 22-93): as the sequence (P48061 22-93 limits assumed) above
Chain of CCL19 (control chemokine) (ligand) (Q99731 22-98): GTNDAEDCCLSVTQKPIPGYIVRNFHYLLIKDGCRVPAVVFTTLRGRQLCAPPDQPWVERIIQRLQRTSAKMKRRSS

For the substance “Mouse anti-human CXCR4 mAb (clone 44716.111, R&D Systems) (antibody)”, the arrest on TNF-α-stimulated LMEC of CXCR4-B16 cells pretreated with anti-CXCR4 mAb (10 µg/ml) (Mean adherent cells/field) in test [1] was 7.5.

“anti-human CXCL12 mAb (clone 77014.111, R&D Systems) (antibody)”: in test [2], the arrest of CXCR4-B16 cells on LMEC pretreated with anti-CXCL12 mAb (100 µg/ml) (Mean adherent cells/field) amounted to 41.2.

Turning to recombinant CXCL12 (SDF-1) (ligand), in test [1], the adhesion of CXCR4-B16 cells to CXCL12-treated DMEC (adherent cells, parallel plate flow chamber) stood at 85.2; the adhesion of CXCR4-B16 cells to CXCL12-treated LMEC (adherent cells) is 321; the arrest of CXCR4-B16 cells on TNFα-treated LMEC under flow, with exogenous CXCL12 (Mean adherent cells/field) is 170; the arrest of CXCR4-B16 cells on plates co-coated with VCAM-1/Ig and CXCL12 at 1.5 dynes/cm^2 (Mean adherent cells/field) is 87.2. Besides, in test [1], the growth of CXCR4-B16 cells in low serum, cell count at 24 h amounted to 19.3 and the growth of CXCR4-B16 cells in low serum, cell count at 48 h was found to be 35.3.

As to CCL19 (control chemokine) (ligand), in test [1], the adhesion of CXCR4-B16 cells to chemokine-treated DMEC (adherent cells, parallel plate flow chamber) amounted to 6.8; the arrest of CXCR4-B16 cells on plates co-coated with VCAM-1/Ig and CCL19 at 1.5 dynes/cm^2 (Mean adherent cells/field) was 17.2.

In test [1], “LMEC-derived CXCL12 (endogenous CXCL12 of human lung microvascular endothelial cells) (from UniProt P48061 22-93) (ligand)” yielded an arrest of CXCR4-B16 against pLNCX2-B16 cells on LMEC, no exogenous CXCL12 of 3 times and an arrest of CXCR4-B16 cells on TNFα-treated LMEC under flow, no exogenous CXCL12 (Mean adherent cells/field) of 102.
